The target in this assay is integrin αIIbβ3 (human (endogenous in HEL)) (UniProt P08514). In words: proximity ligation.

talin, sequence (Q9Y490 whole entry): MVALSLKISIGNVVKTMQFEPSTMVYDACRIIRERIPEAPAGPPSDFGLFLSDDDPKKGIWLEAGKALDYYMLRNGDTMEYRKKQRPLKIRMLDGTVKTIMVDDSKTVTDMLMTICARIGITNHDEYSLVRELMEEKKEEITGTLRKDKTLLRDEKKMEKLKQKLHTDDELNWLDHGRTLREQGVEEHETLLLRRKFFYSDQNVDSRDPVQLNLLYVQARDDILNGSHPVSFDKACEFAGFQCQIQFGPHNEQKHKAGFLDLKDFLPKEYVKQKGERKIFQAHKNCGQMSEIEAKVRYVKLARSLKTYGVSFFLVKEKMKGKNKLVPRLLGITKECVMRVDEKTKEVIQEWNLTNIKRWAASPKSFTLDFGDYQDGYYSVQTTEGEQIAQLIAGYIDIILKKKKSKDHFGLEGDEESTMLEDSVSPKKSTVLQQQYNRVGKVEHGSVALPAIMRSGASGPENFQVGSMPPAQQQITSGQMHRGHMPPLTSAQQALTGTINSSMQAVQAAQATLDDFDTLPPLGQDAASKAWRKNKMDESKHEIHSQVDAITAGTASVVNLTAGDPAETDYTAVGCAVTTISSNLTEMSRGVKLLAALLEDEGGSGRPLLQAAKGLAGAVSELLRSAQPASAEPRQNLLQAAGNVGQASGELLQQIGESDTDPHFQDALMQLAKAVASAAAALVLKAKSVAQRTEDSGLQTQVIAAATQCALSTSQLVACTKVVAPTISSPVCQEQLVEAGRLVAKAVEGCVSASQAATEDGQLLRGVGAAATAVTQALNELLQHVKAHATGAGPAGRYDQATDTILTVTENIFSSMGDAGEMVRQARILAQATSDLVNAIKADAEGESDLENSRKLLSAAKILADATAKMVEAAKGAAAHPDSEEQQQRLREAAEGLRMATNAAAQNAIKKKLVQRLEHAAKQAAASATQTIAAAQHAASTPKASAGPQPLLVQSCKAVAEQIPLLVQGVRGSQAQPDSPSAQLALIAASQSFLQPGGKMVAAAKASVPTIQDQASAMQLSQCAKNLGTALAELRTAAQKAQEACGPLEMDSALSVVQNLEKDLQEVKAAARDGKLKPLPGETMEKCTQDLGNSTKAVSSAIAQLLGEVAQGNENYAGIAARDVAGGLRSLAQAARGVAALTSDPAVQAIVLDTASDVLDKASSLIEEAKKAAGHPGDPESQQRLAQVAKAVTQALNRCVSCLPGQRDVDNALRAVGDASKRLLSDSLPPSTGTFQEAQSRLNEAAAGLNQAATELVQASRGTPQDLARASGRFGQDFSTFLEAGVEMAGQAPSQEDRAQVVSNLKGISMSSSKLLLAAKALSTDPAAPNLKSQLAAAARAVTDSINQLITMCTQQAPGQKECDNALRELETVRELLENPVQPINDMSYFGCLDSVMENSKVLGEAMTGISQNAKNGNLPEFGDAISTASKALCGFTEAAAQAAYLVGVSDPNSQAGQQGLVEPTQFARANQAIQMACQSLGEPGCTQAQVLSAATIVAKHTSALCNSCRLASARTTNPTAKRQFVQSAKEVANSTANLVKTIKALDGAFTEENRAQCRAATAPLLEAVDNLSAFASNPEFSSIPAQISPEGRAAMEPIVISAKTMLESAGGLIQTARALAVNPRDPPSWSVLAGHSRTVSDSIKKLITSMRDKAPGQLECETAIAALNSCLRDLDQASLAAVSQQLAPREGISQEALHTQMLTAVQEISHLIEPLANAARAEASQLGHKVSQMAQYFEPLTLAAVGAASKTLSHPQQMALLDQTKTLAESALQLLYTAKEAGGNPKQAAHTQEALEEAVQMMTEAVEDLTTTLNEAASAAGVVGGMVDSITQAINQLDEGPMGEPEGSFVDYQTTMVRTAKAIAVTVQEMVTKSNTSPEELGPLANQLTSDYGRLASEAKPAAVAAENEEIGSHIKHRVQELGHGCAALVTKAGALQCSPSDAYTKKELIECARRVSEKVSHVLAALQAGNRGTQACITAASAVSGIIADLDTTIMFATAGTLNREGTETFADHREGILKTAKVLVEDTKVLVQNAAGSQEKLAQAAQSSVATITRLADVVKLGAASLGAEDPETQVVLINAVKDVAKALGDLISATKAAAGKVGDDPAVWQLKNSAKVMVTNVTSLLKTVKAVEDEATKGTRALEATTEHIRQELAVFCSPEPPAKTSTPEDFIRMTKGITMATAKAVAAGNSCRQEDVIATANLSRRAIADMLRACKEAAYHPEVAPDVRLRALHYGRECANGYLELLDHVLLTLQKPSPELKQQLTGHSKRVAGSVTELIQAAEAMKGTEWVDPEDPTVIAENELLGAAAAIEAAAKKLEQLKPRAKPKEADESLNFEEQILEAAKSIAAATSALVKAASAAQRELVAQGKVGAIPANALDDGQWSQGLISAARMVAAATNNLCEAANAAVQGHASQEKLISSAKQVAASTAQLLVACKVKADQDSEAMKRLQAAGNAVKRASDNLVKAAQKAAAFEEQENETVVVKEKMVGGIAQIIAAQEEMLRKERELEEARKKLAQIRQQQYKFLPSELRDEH

With “FLNa-Del1, filamin A mutant lacking the N-terminal actin-binding domain (CH1-CH2) (domain or fragment)”, the PLA dots/cell (with PMA; FLNa-Del1 cells) was 7.2 dots/cell and the PLA dots/cell (without PMA; FLNa-Del1 cells) is 17.6 dots/cell.
With “talin (from UniProt Q9Y490 1-2541) (natural protein)”, the PLA dots/cell (no PMA; control, FLNa WT and FLNa-Del1 cells) turned out to be 5 dots/cell; the PLA dots/cell (with 10 µM ROCK inhibitor Y-27632; FLNa WT cells, Figure 5H) came to 17.7 dots/cell; the PLA dots/cell (with PMA and 10 µM EHop-016; FLNa-Del1 cells) came out at 4.4 dots/cell; the PLA dots/cell (with PMA and 10 µM Y-27632; FLNa WT cells) turned out to be 10.8 dots/cell. This substance yielded a PLA dots/cell (with PMA and Y-27632; FLNa-Del1 cells) of 13.2 dots/cell; a PLA dots/cell (with PMA, without EHop-016; FLNa-Del1 cells) of 20.4 dots/cell; a PLA dots/cell (with PMA, without Y-27632; FLNa WT cells) of 4 dots/cell; a PLA dots/cell (with PMA, without Y-27632; FLNa-Del1 cells) of 14.9 dots/cell. The same substance gave a PLA dots/cell (with PMA; FLNa WT cells) of 8.2 dots/cell, a PLA dots/cell (with PMA; FLNa-Del1 cells) of 15 dots/cell, a PLA dots/cell (with PMA; FLNa-Del2 cells) of 21.2 dots/cell and a PLA dots/cell (with PMA; FLNa-WT cells) of 7.1 dots/cell. The same substance came in with a PLA dots/cell (without PMA; FLNa-Del1 cells) of 4.6 dots/cell and a PLA dots/cell (without ROCK inhibitor; FLNa WT cells, Figure 5H) of 9.1 dots/cells.

These data come from article PMC8924993.
